No end group written: not given here.
T1: LL peptide (human, also: biotinylated, position not given here)
T1 construct: Synthetic; also called Biotinylated LL peptide
T1 peptide: LLFLLEEYKNYL

T2: DH Peptide (human, also: biotinylated, position not given here)
T2 construct: Synthetic; also called polypeptide DH; Biotinylated DH peptide
T2 peptide: DAANMSMRVRRH

T3: VP peptide (human, also: biotinylated, position not given here)
T3 construct: Synthetic; also called Biotinylated VP peptide
T3 peptide: VMLSSQVPLEPP

T4: GST-human proBDNF-E2 peptide (human, UniProt P23560 76-129)
T4 construct: not shown: GST (glutathione S-transferase) fusion partner
T4 sequence: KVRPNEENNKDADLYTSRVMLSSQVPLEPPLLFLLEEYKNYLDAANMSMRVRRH

T5: GST-human proBDNF-E5 peptide (human)
T5 construct: not shown: GST (glutathione S-transferase) fusion partner
T5 chain: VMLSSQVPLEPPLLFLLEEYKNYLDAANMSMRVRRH

T6: GST-huBDNFpro4
T6 construct: Printed on the sheet without the E ('GST-huBDNFpro4'); also called E4; GST-human proBDNF-E4 peptide
T6 peptide: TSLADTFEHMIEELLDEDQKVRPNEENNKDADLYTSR

T7: human proBDNF precursor protein (human, UniProt P23560 19-247)
T7 construct: also called human proBDNF precursor recombinant protein
T7 sequence (looked up): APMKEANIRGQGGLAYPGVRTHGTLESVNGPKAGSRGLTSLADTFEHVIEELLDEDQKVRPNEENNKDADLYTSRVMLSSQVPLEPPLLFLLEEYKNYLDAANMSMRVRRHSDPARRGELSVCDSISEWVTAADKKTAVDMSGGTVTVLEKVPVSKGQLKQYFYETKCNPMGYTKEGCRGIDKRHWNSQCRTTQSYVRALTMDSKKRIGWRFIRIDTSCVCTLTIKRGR

B1: 1D3 Monoclonal antibody (antibody, V domains shown)
VH: QVQLVESGGGLIQPGGSMRLSCAASGFSLSGYDMHWVRQIAGKGLEWVAGLGMEGDSYYSASVKGRFTISRQDAKNSLYLEMKDLGGGDTAVYYCLRDVHGFDVWGQGTTVTVSS
VL: DVVMTQSPLSLPVTPGEPASISCRSSQSLLYSNGYTYLDWYLQRPGQSPQLLIYMGSNRASGVPDRFSGSGSGTDFTLKISRVEAEDVGVYYCMQALQTPLTFGGGTKLEIKR
notes: also called recombinant monoclonal antibody 1D3; fully human monoclonal antibody 1D3
B2: 2H8 Monoclonal antibody (antibody, V domains shown)
VH: EVQLVETGGGLVQPGGSLRLSCAASGFTFSSYGMHWVRQAPGKGLEWVSVISGSGDSTYYAESVKGRFTISRDNARNTVYLQMNSLRAEDTAVYYCASGILTGYVFDYWGKGTMVTVSS
VL: DVVMTQSPLSLPVTLGQPASISCRSSQSLVSNDGNTYLNWFQQRPGQPPRRLIYMVSKWDSGVPDRFSGSGSGTDFTLRISRVEAEDVGVYYCMQSTHWPPTFGGGTKLEIKR
notes: also called recombinant monoclonal antibody 2H8

Columns and labels:
[1] = target: T1, LL peptide; assay: ELISA, biotinylated peptide
Text: (§1) The E5 peptide was further divided into three equal peptide segments, each comprising 12 amino acids, namely VP peptide ([…], SEQ ID NO: 33), LL peptide ([…], SEQ ID NO: 34), DH Peptide ([…], SEQ ID NO: 35). Biotinylated VP peptide, LL peptide and DH peptide were synthesized in vitro by GL Biochemical (Shanghai) Ltd. and the binding of antibodies was detected by ELISA.

[2] = target: T2, DH Peptide; assay: ELISA, biotinylated peptide
Text: as §1

[3] = target: T3, VP peptide; assay: ELISA, biotinylated peptide
Text: as §1

[4] = target: T4, GST-human proBDNF-E2 peptide; assay: ELISA on GST fusion proteins
Text: (§2) The five peptides were fused with GST and expressed, and then purified. The binding of antibodies 1D3 and 2H8 was detected by ELISA.

[5] = target: T5, GST-human proBDNF-E5 peptide; assay: ELISA on GST fusion proteins
Text: as §2

[6] = target: T6, GST-huBDNFpro4; assay: ELISA, GST fusion protein coated, absorbance at 450 nm
Text: as §2

[7] = target: T7, human proBDNF precursor protein; assay: SPR, Biacore T200, capture method, human proBDNF precursor protein at 0.25-8 nM
Description: The affinity and kinetic parameters of the 1D3 and 2H8 monoclonal antibodies were measured by the capture method using the Biacore T200 system (purchased from GE). The operation is referred to the instruction. The adopted concentrations of human proBDNF precursor protein were 0.25nM, 0.5nM, 1nM, 2nM, 4nM and 8nM, respectively. The Biacore T200 evaluation software was used to evaluate the obtained action curve and to calculate the KD value of affinity . FIG. 1A and FIG. 1B respectively show the kinetic curves of monoclonal antibodies 1D3 and 2H8 in the Biacore affinity determination experiment.

| Binder | binding result [1] | binding result [2] | binding result [3] | binding result [4] | binding result [5] | binding result [6] | Kd [7] [nM] | koff [7] [s⁻¹] | kon [7] [M⁻¹ s⁻¹] |
| --- | --- | --- | --- | --- | --- | --- | --- | --- | --- |
| B1 | no binding | binds | no binding | binds | binds | no binding |  |  |  |
| B2 | no binding | binds | no binding |  | binds | no binding | 1.91 | 0.00594 | 3.1e+06 |

From US20220064274A1 (SHANGHAI YILE BIOTECHNOLOGY, published 2022)
